Assay results from paper PMC4488664, “An Inactive Geminin Mutant That Binds Cdt1” (Genes, 2015).
Residue numbers refer to the chain shown, from its start.

Experiments:
mouse Cdt1^172-368 [1] = target: T1, mouse Cdt1^172-368 (mouse, UniProt Q8R4E9 172-368); assay: ITC
T1 chain: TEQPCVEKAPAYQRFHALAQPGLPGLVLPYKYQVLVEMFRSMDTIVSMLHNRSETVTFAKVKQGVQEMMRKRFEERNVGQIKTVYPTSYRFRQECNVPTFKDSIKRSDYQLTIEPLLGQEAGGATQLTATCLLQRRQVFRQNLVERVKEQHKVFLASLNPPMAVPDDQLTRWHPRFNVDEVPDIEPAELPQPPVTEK

[2] = target: mouse Cdt1^172-368 (mouse) (UniProt Q8R4E9); assay: ITC; MicroCal ITC200, 18 °C; 20 mM Na-HEPES pH 7.5, 300 mM NaCl, 7 mM β-mercaptoethanol; 17 injections of Geminin (WT 0.432 mM, AWA 0.297 mM) into 200 µL Cdt1 (0.044 mM)
mouse Cdt1^172-368 [3] = target: T2, mouse Cdt1^172-368 (mouse, UniProt Q8R4E9 172-368); assay: as above; details: both partners purified
T2 construct: Cdt1, mouse, residues 172-368; Inserted between the NdeI and KpnI sites of pET Duet 1; source: E. coli BL21, purified, dialyzed
T2 sequence (looked up): T1 chain

B1: mouse Geminin^79-157 AWA (domain or fragment)
chain: TQEAFDLISKENPSSQAWAEVAEQRRKALYEALKENEKLHKEIEQKDSEIARLRKENKDLAEVAEHVQYMAEVIERLSN
Ka (mouse Cdt1^172-368 [1]): 4e+06 M⁻¹
Kd [2]: 250 nM

B2: mouse Geminin^79-157 wild type (domain or fragment, UniProt O88513 79-157, looked up)
chain: B1 chain with A17Y, A19K
notes: Geminin, mouse, residues 79-157 (methods); Limits differ between methods (79-157) and legend (72-157); also called Geminin^WT; source: E. coli BL21, purified over nickel-NTA agarose, dialyzed
Ka (mouse Cdt1^172-368 [1]): 3.5e+06 M⁻¹
Kd (mouse Cdt1^172-368 [3]): 290 nM
